Here are results for five molecules from patent US20250171532A1 (NB HEALTH LABORATORY, published 2025).

Experiment [1] concerns the target T1, human LPA1 (human, UniProt Q92633 1-364).
T1 construct: Untagged, on human LPA1-stably expressing CHO cells (CHO-K1); also the endogenous receptor on the human lung fibroblast line printed as IMIR-90; also called human lysophosphatidic acid receptor 1; hLPA1
Nature of the experiment: flow cytometry, human LPA1-stably expressing CHO cells, median fluorescence intensity. The text has this: (§1) The human LPA1-stably expressing CHO cell and the mouse LPA1-stably expressing CHO cell were washed with PBS, then detached from the cell culture dishes by an enzyme-free cell dissociation buffer (Thermo Fisher Scientific, Inc.), then washed with PBS, and then collected by centrifugation. The human LPA1-stably expressing CHO cell and the mouse LPA1-stably expressing CHO cell were suspended at 1×10⁷ cells/mL in Fc Block (Sci-Tech Biosciences, Inc.) diluted by 500 times in FACS buffer, and then allowed to stand at 4° C. for 30 minutes to block the cells. The cells were collected by centrifugation and suspended in FACS buffer at 4×10⁶ cells/mL, and this suspension was dispensed into a V-bottom 96-well plate (Thermo Fisher Scientific, Inc.) at 25 μL (1×10⁵ cells)/well. As primary antibodies, the eleven types of LPA1 antibodies produced and purified by the method described above and a mouse isotype control antibody (Fujifilm Wako Pure Chemicals Corporation) were diluted stepwise, which was added to each well at 25 μL/well, and allowed to stand at 4° C. for 1 hour. The cells were collected by centrifugation and washed with 120 μL of FACS buffer. This washing operation was repeated twice. To the cell sediment, 25 μL each of Goat Anti-Mouse IgG H&L (DyLight 650) (Abcam) that was a secondary antibody diluted by 500 times in FACS buffer was dispensed, then suspended, and then allowed to stand at 4° C. for 1 hour. The cells were washed twice, then suspended in 50 μL of FACS buffer, and the binding of antibodies to the cells was measured using a flow cytometer (Agilent Novocyte).
(§2) A graph was created, in which a concentration of the antibody was plotted on the […] axis, and a median fluorescence intensity of the flow cytometer histogram was plotted on the horizontal axis. All of the eleven antibodies were confirmed to dose-dependently bind to the human LPA1-stably expressing CHO cell and the mouse LPA1-stably expressing CHO cell. The results of the binding of each antibody to the human LPA1-stably expressing CHO cell are presented in FIG. 2A to FIG. 2K, and the results of the binding of each antibody to the mouse LPA1-stably expressing CHO cell are presented in FIG. 3A to FIG. 3K.
For orientation: Flow cytometry measures light scatter and fluorescence of single cells or particles in a stream.

The target in experiment [2] is T2, human LPA3 with FLAG tag (human LPA3 gene transfected cell) (human, UniProt Q9UBY5 1-353).
T2 construct: also called EDG7; not shown: FLAG tag added at the 5' terminal of the gene
T2 sequence: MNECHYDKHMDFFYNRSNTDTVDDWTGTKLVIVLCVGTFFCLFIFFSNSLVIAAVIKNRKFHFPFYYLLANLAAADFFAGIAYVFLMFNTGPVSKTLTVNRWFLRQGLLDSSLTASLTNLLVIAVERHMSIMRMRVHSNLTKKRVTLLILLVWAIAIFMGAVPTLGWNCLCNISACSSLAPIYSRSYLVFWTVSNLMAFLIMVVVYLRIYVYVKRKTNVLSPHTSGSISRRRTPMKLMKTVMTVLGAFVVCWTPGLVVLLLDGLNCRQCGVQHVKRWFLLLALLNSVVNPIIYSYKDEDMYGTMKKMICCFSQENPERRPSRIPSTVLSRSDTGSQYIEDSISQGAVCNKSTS
Kind of experiment: flow cytometry, transfected HEK293FT cells, histogram shift. On the procedure: (§3) BTEK293FT cell was transfected with 10 μg of an expression vector carrying each synthetic gene using Lipofectamine 2000, to prepare a human LPA1 gene transfected cell, a mouse LPA1 gene transfected cell, a human LPA2 gene transfected cell, a mouse LPA2 gene transfected cell, a human LPA3 gene transfected cell, and a mouse LPA3 gene transfected cell.
(§4) The next day, the cells were washed with PBS, then detached from the cell culture dishes by an enzyme-free cell dissociation buffer (Thermo Fisher Scientific, Inc.), then washed with PBS, and then collected by centrifugation. Goat serum (Thermo Fisher Scientific, Inc.) was diluted by 2 times in FACS buffer (PBS containing 1% o of FBS), into which the cells were suspended at 1×10⁷ cells/mL. This suspension was allowed to stand at 4° C. for 30 minutes to block the cells. The cells were collected by centrifugation and suspended in FACS buffer at 4×10⁶ cells/mL, and this suspension was dispensed into a V-bottom 96-well plate (Thermo Fisher Scientific, Inc.) at 25 μL (1×10⁵ cells)/well.
(§5) The cells were collected by centrifugation and washed with 120 μL of FACS buffer. This washing operation was repeated twice. To the cell sediment, 25 μL each of Goat Anti-Mouse IgG H&L (DyLight 650) (Abcam) that was a secondary antibody diluted by 500 times in FACS buffer was dispensed, then suspended, and then allowed to stand at 4° C. for 1 hour. The cells were washed twice, then suspended in 50 μL of FACS buffer, and the whole content thereof was transferred to a V-bottom 96-well plate (Greiner), to measure the binding of antibodies to the cells using a flow cytometer (Agilent Novocyte).

Experiment [3] concerns the target T3, mouse LPA3 with FLAG tag (mouse LPA3 gene transfected cell) (mouse, UniProt Q9EQ31 1-354).
T3 construct: not shown: FLAG tag added at the 5' terminal of the gene
T3 sequence: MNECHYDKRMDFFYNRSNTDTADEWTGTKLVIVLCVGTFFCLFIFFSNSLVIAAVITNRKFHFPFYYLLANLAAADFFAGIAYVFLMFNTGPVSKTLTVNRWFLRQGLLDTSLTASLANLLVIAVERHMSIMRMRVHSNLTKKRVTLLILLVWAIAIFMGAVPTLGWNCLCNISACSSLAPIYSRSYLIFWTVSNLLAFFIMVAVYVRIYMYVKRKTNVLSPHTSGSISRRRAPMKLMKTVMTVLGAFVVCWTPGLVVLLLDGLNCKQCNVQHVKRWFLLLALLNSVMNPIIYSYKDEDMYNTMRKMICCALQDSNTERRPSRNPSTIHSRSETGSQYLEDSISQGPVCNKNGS
Described as above. As for the experimental part: as §3, §4, §5

The target of experiment [4] is T4, human LPA2 with FLAG tag (human LPA2 gene transfected cell) (human, UniProt Q9HBW0 1-348).
T4 construct: also called EDG4; not shown: FLAG tag added at the 5' terminal of the gene
Described as above. As for the experimental part: as §3, §4, §5

In experiment [5] the target is T5, mouse LPA2 with FLAG tag (mouse LPA2 gene transfected cell) (mouse, UniProt Q9JL06 1-348).
T5 construct: not shown: FLAG tag added at the 5' terminal of the gene
Described as above. On the procedure: as §3, §4, §5

In experiment [6] the target is T6, mouse LPA1 (mouse, UniProt P61793 1-364).
T6 construct: Untagged, on mouse LPA1-stably expressing CHO cells (Flp-In-CHO); also called mLPA1
Kind of experiment: flow cytometry, mouse LPA1-stably expressing CHO cells, median fluorescence intensity.
Excerpt: as §1, §2

Experiment [7] addresses T1, human LPA1. Kind of experiment: cell-based or functional assay.
Experiment [8] has as its target T6, mouse LPA1. Nature of the experiment: cell-based or functional assay.
For experiment [9], the target named is T1, human LPA1. Kind of experiment: cell-based or functional assay. This is another data set of the same source.
Experiment [10] deals with T6, mouse LPA1. Nature of the experiment: cell-based or functional assay. This is another data set of the same source.

T4 sequence (Q9HBW0 other isoform, or with tags, fused parts or gaps): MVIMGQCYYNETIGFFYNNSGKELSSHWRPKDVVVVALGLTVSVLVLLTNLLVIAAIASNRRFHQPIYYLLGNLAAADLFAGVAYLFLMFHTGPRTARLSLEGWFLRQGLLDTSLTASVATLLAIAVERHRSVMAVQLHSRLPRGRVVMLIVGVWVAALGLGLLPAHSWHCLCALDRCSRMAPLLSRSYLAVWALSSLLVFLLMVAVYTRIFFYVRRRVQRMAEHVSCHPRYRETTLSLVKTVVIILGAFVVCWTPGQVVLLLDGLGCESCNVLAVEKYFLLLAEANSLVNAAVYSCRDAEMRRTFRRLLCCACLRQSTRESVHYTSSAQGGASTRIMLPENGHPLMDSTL
T1 sequence (Q92633 whole entry): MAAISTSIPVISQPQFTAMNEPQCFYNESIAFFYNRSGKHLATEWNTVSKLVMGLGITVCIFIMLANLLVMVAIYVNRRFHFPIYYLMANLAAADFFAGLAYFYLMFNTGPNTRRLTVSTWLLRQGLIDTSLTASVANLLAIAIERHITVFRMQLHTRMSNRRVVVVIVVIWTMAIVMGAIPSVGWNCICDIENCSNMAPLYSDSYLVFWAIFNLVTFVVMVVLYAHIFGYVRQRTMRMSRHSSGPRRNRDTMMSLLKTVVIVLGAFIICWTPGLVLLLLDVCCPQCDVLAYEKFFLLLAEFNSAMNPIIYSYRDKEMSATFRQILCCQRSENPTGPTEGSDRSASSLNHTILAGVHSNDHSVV
T5 sequence (Q9JL06 whole entry): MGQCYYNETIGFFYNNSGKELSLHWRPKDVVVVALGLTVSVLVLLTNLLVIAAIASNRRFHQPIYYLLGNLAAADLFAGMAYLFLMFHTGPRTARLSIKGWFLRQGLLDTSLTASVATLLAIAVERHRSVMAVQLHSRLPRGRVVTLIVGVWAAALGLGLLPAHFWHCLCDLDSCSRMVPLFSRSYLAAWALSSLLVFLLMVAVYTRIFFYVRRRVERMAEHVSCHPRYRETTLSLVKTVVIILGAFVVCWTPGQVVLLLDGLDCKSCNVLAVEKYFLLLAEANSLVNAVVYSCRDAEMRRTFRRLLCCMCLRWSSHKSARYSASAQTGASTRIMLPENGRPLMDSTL
T6 sequence (P61793 whole entry): as the sequence (Q92633 whole entry) above, with I4A, I8S, P22Q, H40Y, I61V, E193D, N194H, I269V, S331N, T335N counted along it

B1: 210309-1-G (antibody, mouse IgG1, V domains shown)
VH: QVQLQQSGAELARPGASMKLSCRASGYTFTSYGISWVKQRTGQGLEWIGEIYPRSGVTYYNEKFKGRATLTADKSSSTAFMELRSLTSEDSAVYFCARESISLRLGWYFDVWGTGTTVTVSS
VL: DIQMTQSPASLSASVGDTVTITCRASENIYRFLAWYQQKQRKSPHLLVYNAKTLAEGVPSRFSGSGSGTQFSLKINSLQPEDFGSYYCQHHYGPPLTFGAGTKLELT
notes: Mouse monoclonal from human LPA1 immunization
As usually defined, the EC50 is the concentration giving half of the maximal effect. Low values mean an effect from little substance, high ones a need for much substance. Regarding B1, the EC50 with human LPA1 [1] was 1.8 nM; in the experiment with mouse LPA1 [6], 2.4 nM. The binding result in experiment [2], in experiment [3], in [4] and in experiment [5] was “no binding (tested: 25 g/mL (so in the source))” throughout. The “Intracellular cAMP signaling inhibition (Inhibition rate %/100 nM)” value with human LPA1 [7] is 34%; with mouse LPA1 [8], 36%. The “Intracellular cAMP signaling inhibition IC50” value with human LPA1 [9] amounted to 40.9 nM; with mouse LPA1 [10] it was 197 nM.

B2: 211222-1-G (antibody, mouse IgG1, V domains shown)
VH: QVQVQQSGAELARPGASVRLSCKASGYTFTSFGVNWVKQRTGQGLEWIGQIYPRTGTTYHNERFKGKATLTADKSSSTAYMELRSLTSEDSAVYFCAREGDRYSLAYWGQGTLVTVSA
VL: DIQMTQSPASLSASVGETVTITCRASENIYRFLAWYQQKQGKSPQLLVYNAKTLVEGVPSRFSGSGSGTQFSLKINNLQPEDFGSYYCQHHYGIPLTFGAGTKLELK
notes: as for B1
In the case of B2, the EC50 in the experiment with human LPA1 [1] worked out at 4.2 nM; in the experiment with mouse LPA1 [6] it was 2.3 nM. The binding result in [2], in [3], in experiment [4] and in [5] was “no binding (tested: 25 g/mL (so in the source))” in each case. The “Intracellular cAMP signaling inhibition (Inhibition rate %/100 nM)” value with human LPA1 [7] came to 22%; with mouse LPA1 [8], 49%. Also, the “Intracellular cAMP signaling inhibition IC50” value in the experiment with human LPA1 [9] came to 96.8 nM; with mouse LPA1 [10], 199 nM.

B3: 210309-2-D (antibody, mouse IgG1, V domains shown)
VH: QVQLQQSGAELARPGASVKLSCKASGYTFTSYGISWVKQRTGQGLEWIGEIYPRSGNTYYNEKVKGKATLTADKSSSTAYMELRSLTSEDSAVYFCARESIFLRLGWYFDVWGTGTTVTVSS
VL: DIQMTQSPASLSASVGETVTITCRASDNIYRFLAWYQQKQGKSPQLLVYNAKTLAEGVPSRFSGSGTGTQFSLKINSLQPEDFGIYYCQHHYGPPLTFGAGTKLELK
notes: as for B1
In the case of B3, the EC50 with human LPA1 [1] is 1.8 nM; with mouse LPA1 [6], 2.1 nM. Moreover, the binding result in experiment [2], in [3], in experiment [4] and in [5] was “no binding (tested: 25 g/mL (so in the source))” each time. The results for the “Intracellular cAMP signaling inhibition (Inhibition rate %/100 nM)” value with human LPA1 [7] and in the experiment with mouse LPA1 [8] were 51% and 53%, respectively. Also, the “Intracellular cAMP signaling inhibition IC50” value is 18 nM in the experiment with human LPA1 [9] and 163 nM with mouse LPA1 [10].

B4: 210420-3-E (antibody, mouse IgG1, V domains shown)
VH: QLQLQQSGAELARPGASVKLSCKASGYTFASFGISWVKQRAGQGLEYIGEIYPRSGTTYFNEKFRGKATLTADKSSSTAYMELRRLTSEDSAVYFCAREGVRRYAMDYWGQGTSVTVSS
VL: DIQVTQSPASLSASVGETVTITCRASGNIYSFLAWYQQKQGKSPQLLVYNAKTLAEGVPSRFSGSGSGTQFSLKINSLQPEDFGSYYCQHHYGIPLTFGAGTKLDLK
notes: Mouse monoclonal from mouse LPA1 immunization
On to B4, for which the EC50 with human LPA1 [1] amounted to 1.9 nM; in the experiment with mouse LPA1 [6], 1 nM. Also, the binding result in experiment [2], in experiment [3], in [4] and in [5] was “no binding (tested: 25 g/mL (so in the source))” each time. In addition, the figures for the “Intracellular cAMP signaling inhibition (Inhibition rate %/100 nM)” value with human LPA1 [7] and in the experiment with mouse LPA1 [8] were 44% and 50%, respectively. For the same molecule, the entries for the “Intracellular cAMP signaling inhibition IC50” value with human LPA1 [9] and in the experiment with mouse LPA1 [10] were 33.1 nM and 114 nM, respectively.

B5: 210420-4-E (antibody, mouse IgG1, V domains shown)
VH: QLHLQQSGAELARPGASVRLSCKASGYTFASFGISWVKQRTGQGLEYIGEIYPRSGTTYFNEKFRGKATLSADKSSSTAYMELRSLTSEDSAVYFCAREGVRRYAMDYWGQGTSVTVSS
VL: DIQVTQSPASLSASVGETVTITCRASGNIYSFLAWYQQKQGKSPQLLVYNAKTLAEGVPSRFSGSGSGTQFSLKISSLQPEDFGSYYCQHHYGIPLTFGAGTKLDLK
notes: as for B4
For the molecule B5, the EC50 was 2 nM in the experiment with human LPA1 [1] and 1.3 nM in the experiment with mouse LPA1 [6]. Besides, the binding result in [2], in [3], in experiment [4] and in [5] was “no binding (tested: 25 g/mL (so in the source))” each time. In addition, the figures for the “Intracellular cAMP signaling inhibition (Inhibition rate %/100 nM)” value with human LPA1 [7] and in the experiment with mouse LPA1 [8] were 24% and 46%, respectively. Also, the “Intracellular cAMP signaling inhibition IC50” value with human LPA1 [9] came to 48.3 nM; with mouse LPA1 [10] it was 124 nM.
